Experimental data taken from US20120178113A1.

Target: T1, full-length human recombinant IGFBP-4 (insulin-like growth factor binding protein-4) expressed in NS0 cell line, P22692
T1 chain: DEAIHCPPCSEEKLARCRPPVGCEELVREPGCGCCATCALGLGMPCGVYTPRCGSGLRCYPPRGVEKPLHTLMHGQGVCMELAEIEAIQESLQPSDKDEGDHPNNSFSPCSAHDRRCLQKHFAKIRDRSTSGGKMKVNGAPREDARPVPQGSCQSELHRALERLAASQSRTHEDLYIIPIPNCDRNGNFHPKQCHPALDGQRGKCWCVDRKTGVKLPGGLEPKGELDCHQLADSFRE

Protein | PAPP-A-dependent cleavage of IGFBP-4, determined by Western blotting
atherosclerotic PAPP-A (pregnancy-associated plasma protein-A purified from human atherosclerotic coronary arteries) (protein) EARGATEEPSPPSRALYFSGRGEQLRLRADLELPRDAFTLQVWLRAEGGQRSPAVITGLYDKCSYISRDRGWVVGIHTISDQDNKDPRYFFSLKTDRARQVTTINAHRSYLPGQWVYLAATYDGQFMKLYVNGAQVATSGEQVGGIFSPLTQKCKVLMLGGSALNHNYRGYIEHFSLWKVARTQREILSDMETHGAHTALPQLLLQENWDNVKHAWSPMKDGSSPKVEFSNAHGFLLDTSLEPPLCGQTLCDNTEVIASYNQLSSFRQPKVVRYRVVNLYEDDHKNPTVTREQVDFQHHQLAEAFKQYNISWELDVLEVSNSSLRRRLILANCDISKIGDENCDPECNHTLTGHDGGDCRHLRHPAFVKKQHNGVCDMDCNYERFNFDGGECCDPEITNVTQTCFDPDSPHRAYLDVNELKNILKLDGSTHLNIFFAKSSEEELAGVATWPWDKEALMHLGGIVLNPSFYGMPGHTHTMIHEIGHSLGLYHVFRGISEIQSCSDPCMETEPSFETGDLCNDTNPAPKHKSCGDPGPGNDTCGFHSFFNTPYNNFMSYADDDCTDSFTPNQVARMHCYLDLVYQGWQPSRKPAPVALAPQVLGHTTDSVTLEWFPPIDGHFFERELGSACHLCLEGRILVQYASNASSPMPCSPSGHWSPREAEGHPDVEQPCKSSVRTWSPNSAVNPHTVPPACPEPQGCYLELEFLYPLVPESLTIWVTFVSTDWDSSGAVNDIKLLAVSGKNISLGPQNVFCDVPLTIRLWDVGEEVYGIQIYTLDEHLEIDAAMLTSTADTPLCLQCKPLKYKVVRDPPLQMDVASILHLNRKFVDMDLNLGSVYQYWVITISGTEESEPSPAVTYIHGSGYCGDGIIQKDQGEQCDDMNKINGDGCSLFCRQEVSFNCIDEPSRCYFHDGDGVCEEFEQKTSIKDCGVYTPQGFLDQWASNASVSHQDQQCPGWVIIGQPAASQVCRTKVIDLSEGISQHAWYPCTISYPYSQLAQTTFWLRAYFSQPMVAAAVIVHLVTDGTYYGDQKQETISVQLLDTKDQSHDLGLHVLSCRNNPLIIPVVHDLSQPFYHSQAVRVSFSSPLVAISGVALRSFDNFDPVTLSSCQRGETYSPAEQSCVHFACEKTDCPELAVENASLNCSSSDRYHGAQCTVSCRTGYVLQIRRDDELIKSQTGPSVTVTCTEGKWNKQVACEPVDCSIPDHHQVYAASFSCPEGTTFGSQCSFQCRHPAQLKGNNSLLTCMEDGLWSFPEALCELMCLAPPPVPNADLQTARCRENKHKVGSFCKYKCKPGYHVPGSSRKSKKRAFKTQCTQDGSWQEGACVPVTCDPPPPKFHGLYQCTNGFQFNSECRIKCEDSDASQGLGSNVIHCRKDGTWNGSFHVCQEMQGQCSVPNELNSNLKLQCPDGYAIGSECATSCLDHNSESIILPMNVTVRDIPHWLNPTRVERVVCTAGLKWYPHPALIHCVKGCEPFMGDNYCDAINNRAFCNYDGGDCCTSTVKTKKVTPFPMSCDLQGDCACRDPQAQEHSRKDLRGYSHG | Atherosclerotic PAPP-A was shown to cleave IGFBP-4 with the same efficiency as recombinant PAPP-A
human recombinant PAPP-A (HyTest) (protein) EARGATEEPSPPSRALYFSGRGEQLRLRADLELPRDAFTLQVWLRAEGGQRSPAVITGLYDKCSYISRDRGWVVGIHTISDQDNKDPRYFFSLKTDRARQVTTINAHRSYLPGQWVYLAATYDGQFMKLYVNGAQVATSGEQVGGIFSPLTQKCKVLMLGGSALNHNYRGYIEHFSLWKVARTQREILSDMETHGAHTALPQLLLQENWDNVKHAWSPMKDGSSPKVEFSNAHGFLLDTSLEPPLCGQTLCDNTEVIASYNQLSSFRQPKVVRYRVVNLYEDDHKNPTVTREQVDFQHHQLAEAFKQYNISWELDVLEVSNSSLRRRLILANCDISKIGDENCDPECNHTLTGHDGGDCRHLRHPAFVKKQHNGVCDMDCNYERFNFDGGECCDPEITNVTQTCFDPDSPHRAYLDVNELKNILKLDGSTHLNIFFAKSSEEELAGVATWPWDKEALMHLGGIVLNPSFYGMPGHTHTMIHEIGHSLGLYHVFRGISEIQSCSDPCMETEPSFETGDLCNDTNPAPKHKSCGDPGPGNDTCGFHSFFNTPYNNFMSYADDDCTDSFTPNQVARMHCYLDLVYQGWQPSRKPAPVALAPQVLGHTTDSVTLEWFPPIDGHFFERELGSACHLCLEGRILVQYASNASSPMPCSPSGHWSPREAEGHPDVEQPCKSSVRTWSPNSAVNPHTVPPACPEPQGCYLELEFLYPLVPESLTIWVTFVSTDWDSSGAVNDIKLLAVSGKNISLGPQNVFCDVPLTIRLWDVGEEVYGIQIYTLDEHLEIDAAMLTSTADTPLCLQCKPLKYKVVRDPPLQMDVASILHLNRKFVDMDLNLGSVYQYWVITISGTEESEPSPAVTYIHGSGYCGDGIIQKDQGEQCDDMNKINGDGCSLFCRQEVSFNCIDEPSRCYFHDGDGVCEEFEQKTSIKDCGVYTPQGFLDQWASNASVSHQDQQCPGWVIIGQPAASQVCRTKVIDLSEGISQHAWYPCTISYPYSQLAQTTFWLRAYFSQPMVAAAVIVHLVTDGTYYGDQKQETISVQLLDTKDQSHDLGLHVLSCRNNPLIIPVVHDLSQPFYHSQAVRVSFSSPLVAISGVALRSFDNFDPVTLSSCQRGETYSPAEQSCVHFACEKTDCPELAVENASLNCSSSDRYHGAQCTVSCRTGYVLQIRRDDELIKSQTGPSVTVTCTEGKWNKQVACEPVDCSIPDHHQVYAASFSCPEGTTFGSQCSFQCRHPAQLKGNNSLLTCMEDGLWSFPEALCELMCLAPPPVPNADLQTARCRENKHKVGSFCKYKCKPGYHVPGSSRKSKKRAFKTQCTQDGSWQEGACVPVTCDPPPPKFHGLYQCTNGFQFNSECRIKCEDSDASQGLGSNVIHCRKDGTWNGSFHVCQEMQGQCSVPNELNSNLKLQCPDGYAIGSECATSCLDHNSESIILPMNVTVRDIPHWLNPTRVERVVCTAGLKWYPHPALIHCVKGCEPFMGDNYCDAINNRAFCNYDGGDCCTSTVKTKKVTPFPMSCDLQGDCACRDPQAQEHSRKDLRGYSHG | Atherosclerotic PAPP-A was shown to cleave IGFBP-4 with the same efficiency as recombinant PAPP-A
